Data: patent publication US20250388633A1

target: growth factor receptors; assay: cell-based or functional assay

Binder | p-Smad1/5/8 (%) (quantification of western blots of phospho-smad1/5/8)
ASASPSSVSQDLSSLSILFF [SEQ ID NO: 58] | 37%
SIPKASSTPTELSPINMLYF [SEQ ID NO: 54] | 32%
NDEGLESVPTEESAISMLYL [SEQ ID NO: 56] | 28%
SSVKSQPSRVHHSPISILFI [SEQ ID NO: 57] | 41%

Now from value to binder:

p-Smad1/5/8 (%) (quantification of western blots of phospho-smad1/5/8) | Binder
29% | VVPKPSSAPTQLEPISILYL [SEQ ID NO: 59]
34% | NDEGLESVPTEERSVKVAKV [SEQ ID NO: 63]
31% | SSVKSQPSRVHHKPLSMLYV [SEQ ID NO: 62]
